We go through four molecules from PMC11756378, “Centriolar cap proteins CP110 and CPAP control slow elongation of microtubule plus ends” (The Journal of Cell Biology, 2025).

Data set [1] has as its target CEP97^CP110-GFP-SII (CEP97 residues 1–650 fused to CP110 residues 581–991) (human) (UniProt Q8IW35).
Data set [2] deals with the molecule itself. Briefly: single-molecule fluorescence intensity (TIRF microscopy); single molecules immobilised on coverslips in MRB80; intensity compared with GFP (monomers) and GFP-EB3 (dimers).
Data set [3] deals with the molecule itself. The experiment in a line: SEC-MALS; 20°C, Superdex S75 10/30 or S200 10/30, 20 mM HEPES pH 7.5, 150 mM NaCl, 2 mM DTT; 15 µl at ∼7 mg/ml; proteins alone or mixed equimolar (also 2:1 and 3:1); homodimer for CP110-CC2. (Size exclusion chromatography separates by hydrodynamic size, large species first.)
The target in data set [4] is T1, CPAP-CC1 (residues 89–196) (human, UniProt Q9HC77 89-196).
T1 construct: Calculated mass of the monomer: 12.5 kDa; source: E. coli BL21(DE3), purified (Ni-NTA, tag cleaved with HRV 3C protease, SEC); not shown: thioredoxin, N-terminal, cleaved; His6, N-terminal, cleaved
T1 sequence (looked up): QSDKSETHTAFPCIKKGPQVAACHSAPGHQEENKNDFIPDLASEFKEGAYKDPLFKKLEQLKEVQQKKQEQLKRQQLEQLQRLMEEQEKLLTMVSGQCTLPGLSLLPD
Briefly: cross-linking; zero-length cross-linking with 60 mM DMTMM, 6 min, 25°C, then mass spectrometry (xQuest). As to conditions: both partners purified.

Take “CPAP-NMUT-mCh (CPAP 1–607 L149A/K150A, GCN4 leucine zipper, mCherry, SII) (from UniProt Q9HC77 1-607)”: the percentage of time CEP97^CP110-GFP was bound to MT plus ends, 20 nM CEP97^CP110-GFP with 50 nM CPAP-NMUT-mCh in data set [1] was 26%.

“CPAP-NWT-mCh (CPAP 1–607, GCN4 leucine zipper, mCherry, SII) (from UniProt Q9HC77 1-607)”: in data set [1], the MT plus-end growth rate with 20 nM CEP97^CP110-GFP and 50 nM CPAP-NWT-mCh (TIRF reconstitution) lay within 0.05 to 0.1 µm/min; the percentage of time CEP97^CP110 was present at MT plus ends, 20 nM CEP97^CP110-GFP with 50 nM CPAP-NWT-mCh was determined as 69%.

B1: CEP97^CP110-GFP-SII (CEP97 residues 1–650 fused to CP110 residues 581–991) (other, human, UniProt Q8IW35 1-650, looked up)
chain: MAVARVDAALPPGEGSVVNWSGQGLQKLGPNLPCEADIHTLILDKNQIIKLENLEKCKRLIQLSVANNRLVRMMGVAKLTLLRVLNLPHNSIGCVEGLKELVHLEWLNLAGNNLKAMEQINSCTALQHLDLSDNNISQIGDLSKLVSLKTLLLHGNIITSLRMAPAYLPRSLAILSLAENEIRDLNEISFLASLTELEQLSIMNNPCVMATPSIPGFDYRPYIVSWCLNLRVLDGYVISQKESLKAEWLYSQGKGRAYRPGQHIQLVQYLATVCPLTSTLGLQTAEDAKLEKILSKQRFHQRQLMNQSQNEELSPLVPVETRASLIPEHSSPVQDCQISQESEPVIQVNSWVGINSNDDQLFAVKNNFPASVHTTRYSRNDLHLEDIQTDEDKLNCSLLSSESTFMPVASGLSPLSPTVELRLQGINLGLEDDGVADESVKGLESQVLDKEEEQPLWAANENSVQMMRSEINTEVNEKAGLLPCPEPTIISAILKDDNHSLTFFPESTEQKQSDIKKPENTQPENKETISQATSEKLPMILTQRSVALGQDKVALQKLNDAATKLQACWRGFYARNYNPQAKDVRYEIRLRRMQEHIVCLTDEIRRLRKERDEERIKKFVQEEAFRFLWNQVRSLQVWQQTVDQRLSSWHFEKVKRRLDLDIDGLQKENCPYVITSGITEQERQHLPEKRYPKGSGFVNKNKMLGTSSKESEELLKSKMLAFEEMRKRLEEQHAQQLSLLIAEQEREQERLQKEIEEQEKMLKEKKAMTAEASELDINNAVELEWRKISDSSLLETMLSQADSLHTSNSNSSGFTNSAMQYSFVSANEAPFYLWGSSTSGLTKLSVTRPFGRAKTRWSQVFSLEIQAKFNKITAVAKGFLTRRLMQTDKLKQLRQTVKDTMEFIRSFQSEAPLKRGIVSAQDASLQERVLAQLRAALYGIHDIFFVMDAAERMSILHHDREVRKEKMLRQMDKMKSPRVALSAATQKSLDRKKYMKAAEMGMPNKKFLVKQNPSETRVLQPNQGQNAPVHRLLSRQGSICRKNPKKAAKCCDNLRRQHSLG
notes: CEP97, human, residues 1-650; Dimer by single-molecule fluorescence intensity; A linker between the two parts is not described; also called CP110-CEP97 fusion; CEP97^CP110 chimera; source: HEK293T, transfected; purified (StrepTactin) for the in vitro assays; in lysate for the co-immunoprecipitation; not shown: GFP, C-terminal, kept; twin-Strep-tag (SII), C-terminal, kept
As for B1, the stoichiometry N (usually a count of units in the complex or per binding partner) in data set [2] stood at 2.

B2: CP110-CC2 (residues 635–717) (domain or fragment, human, UniProt O43303-2 635-717, looked up)
chain: GTSSKESEELLKSKMLAFEEMRKRLEEQHAQQLSLLIAEQEREQERLQKEIEEQEKMLKEKKAMTAEASELDINNAVELEWRK
notes: CP110, human, residues 635-717 (coiled-coil domain CC2); Homodimer alone by SEC-MALS; one chain in the heterodimer with CPAP-CC1; Calculated mass of the monomer: 10.0 kDa; also called CP110 fragment 635–717; source: E. coli BL21(DE3), purified (Ni-NTA, tag cleaved with HRV 3C protease, SEC); not shown: thioredoxin, N-terminal, cleaved; His6, N-terminal, cleaved
For B2, the “stoichiometry N” value in data set [3] is 2. In data set [4], the binding result is “binds”.
